Target: T1, mouse Notch1 (EGF6-13, residues 221-526), biotinylated (mouse, UniProt Q01705 221-526, Biotinylated in vitro by BirA at the C-terminal BAP-tag (tag not in the letters).)
T1 construct: Immobilised on a streptavidin chip for SPR; also called mNotch1 EGF6-13; mNotch1 (6-13)
T1 sequence: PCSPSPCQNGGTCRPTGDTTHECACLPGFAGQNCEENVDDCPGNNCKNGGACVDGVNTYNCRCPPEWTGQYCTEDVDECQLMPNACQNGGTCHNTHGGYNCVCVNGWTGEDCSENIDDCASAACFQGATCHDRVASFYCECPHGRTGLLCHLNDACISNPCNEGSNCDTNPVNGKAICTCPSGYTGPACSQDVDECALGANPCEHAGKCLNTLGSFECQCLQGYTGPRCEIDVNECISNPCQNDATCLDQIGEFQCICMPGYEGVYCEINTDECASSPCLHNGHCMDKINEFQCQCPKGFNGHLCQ
Test: SPR (Biacore T200), biotinylated mNotch1 EGF6-13 on streptavidin chip, DLL4 protein (N-EGF5) in flow, 1:1 model
Experimental: The binding affinity was measured between each DLL4 variant and the EGF6-13 region of murine Notch1 (mNotch1 EGF6-13) to test for cross-species reactivity (FIGS. 2B, 10, 11A). […] Lastly, the binding of Delta^MAX to full-length, cell surface-expressed Notch1 was assessed.
Equilibrium dissociation constants were determined by surface plasmon resonance using a Biacore T200 instrument (GE Healthcare). Approximately 100 resonance units (RU) of biotinylated Notch extracellular fragments (Notch1 (EGF6-13), Notch2 (EGF6-13), Notch3 (EGF5-12), Notch4 (7-12), and mouse Notch1 (EGF6-13)) were immobilized on individual flow cells at 5 μl/min using a streptavidin-coated sensor chip (Series S Sensor chip SA, GE Healthcare). Three-fold serial dilutions of recombinant DLL4 proteins (N-EGF5) starting at 50 μM (WT DLL4), 18 μM (DLL4.v2), and 6 μM (DLL4.v1 and Delta^MAX) were flowed over the chip at 25° C. in SPR buffer (20 mM HEPES pH 7.4, 150 mM NaCl, 1 mM calcium chloride, 0.1% BSA supplemented with 0.005% surfactant P20). Association (“on-rate”) and dissociation (“off-rate”) phases were performed at 10 μl/min for 120 seconds and 300 seconds, respectively. […] Data collection rate was performed at 10 Hz, and curves were reference-subtracted from a flow cell containing 100 RU of a negative control non-related protein (biotinylated mouse RNF43 PA domain). […]

B1: Delta^MAX (N-EGF5), non-biotinylated (ligand)
chain: SSVFQLQLQEFINERGVLASGRPCEPGCRTFFRVCLKHFQAVVSPGPCTFGTVSTPVLGTNSFAVRDDSSGGGRNPLQLPLNFTWPGTFSLIIEAWHAPGDDLRPEALPPDALISKFAIQGSLAVGQNWLLDEQTSTLTRLRYSYRVICSDNYYGDNCSRLCKKRNDYFGHYVCQPDGNPSCLPGWTGEYCQQPICLSGCHEQNGYCSKPAECLCRPGWQGRLCNECIPHPGCRHGTCSTPWQCLCDEGWGGLYCDQDLNYCTHHSPCKNGATCRNSGPRSYTCTCRPGYTGVDCELELSECDSNPCRNGGSCKDQEDGYHCLCPPGYYGLHCEHSTLSCADSPCFNGGSCRERNQGANYACECPPNFTGSNCEHHHHHHHH
notes: also called DLL4^MAX; soluble Delta^MAX
- Kd: 25 nM

— US20260055369A1 (H LEE MOFFITT CANCER CENTER AND RESEARCH INSTITUTE, published 2026)
